Assay results taken from US20190263905A1 (DINONA, published 2019).
Residue numbers refer to the chain shown, from its start.

T1: Antigen CD66c (CEACAM6; Sino Biological, Inc.) (UniProt P40199 35-320)
T1 construct: Bought antigen coated on the ELISA plate; construct not described; also called CD66c antigen; CECACAM6
T1 sequence (looked up): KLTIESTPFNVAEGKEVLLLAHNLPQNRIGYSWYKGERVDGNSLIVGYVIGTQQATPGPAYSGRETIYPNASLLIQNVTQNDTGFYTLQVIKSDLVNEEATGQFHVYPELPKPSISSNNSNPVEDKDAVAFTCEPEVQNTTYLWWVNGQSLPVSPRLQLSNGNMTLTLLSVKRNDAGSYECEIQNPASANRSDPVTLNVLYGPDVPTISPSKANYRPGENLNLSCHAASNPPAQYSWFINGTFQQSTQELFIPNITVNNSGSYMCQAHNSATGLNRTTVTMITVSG

T2: CEACAM1 antigen (Sino Biological, Inc.) (UniProt P13688 35-428)
T2 construct: Bought antigen coated on the ELISA plate; construct not described; also called CEACAM1 (CD66a) antigen; CD66a
T2 sequence (looked up): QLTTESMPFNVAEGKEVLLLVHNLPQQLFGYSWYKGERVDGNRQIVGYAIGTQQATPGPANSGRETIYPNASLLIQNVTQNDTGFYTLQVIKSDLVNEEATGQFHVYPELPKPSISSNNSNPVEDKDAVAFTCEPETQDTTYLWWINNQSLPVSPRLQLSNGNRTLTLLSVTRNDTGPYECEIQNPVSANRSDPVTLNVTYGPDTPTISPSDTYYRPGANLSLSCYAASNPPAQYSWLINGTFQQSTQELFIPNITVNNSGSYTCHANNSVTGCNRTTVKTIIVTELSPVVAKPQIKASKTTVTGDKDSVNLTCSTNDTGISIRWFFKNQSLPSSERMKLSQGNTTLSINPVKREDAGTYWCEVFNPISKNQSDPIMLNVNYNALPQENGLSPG

T3: CD66c (CEACAM6) on CD66c-positive A549 non-small-cell lung cancer cells (UniProt P40199 35-320, limits assumed)
T3 construct: whole, on cells; also called CD66c antigen; NCA-90
T3 sequence (looked up): T1 sequence (looked up)

B1: anti-CD66c chimeric antibody 8F5 (antibody, human IgG1, V domains shown)
VH: EVQLQQSGPELVKPGASMKISCKASGYSFTDYTMNWVKQSHGKNLEWIGLINPFHGGTVSNQRFKVKATLTVDVSSNTAYMELLSLTSDDSAVYYCVRGDPVRHYYALAYWGQGTSVTVSS
VL: DIQMTQSPASLSASVGETVTITCGASENVYGTLNWYQRKQGKSPQLLIYGATNLADGMSSRFSGSGSGRQYSLKISSLHPDDVATYYCQNVLSAPYTFGGGTKLEII
notes: also called chimeric 8F5 antibody; chi 8F5
B2: recombinant humanized anti-CD66c antibody Protein ID 3058 (Vk8 + VH11) (antibody, human IgG1, V domains shown)
VH: QVQLVQSGAEVKKPGASVKISCKASGYSFTDYTMHWVKQAPGQNLEWIGLINPFGGSTSYAQKFKGRVTMTRDTSTNTAYMELSRLRSDDTAVYYCVRGDPVRHYYALAYWGQGTLVTVSS
VL: DIQMTQSPSTLSASVGDRVTITCRASENVYGTLNWYQRKPGKAPKLLIYGATNLADGMPSRFSGSGSGTEYTLTISSLQPDDFATYYCQNVLSAPYTFGGGTKLEIK
notes: also called hu 3058; #86
B3: recombinant humanized anti-CD66c antibody Protein ID 3007 (Vk7 + VH6) (antibody, human IgG1, V domains shown)
VH: QVQLVQSGAEVKKPGASMKISCKASGYSFTDYTMNWVKQAPGQNLEWIGLINPFHGGTVSNQRFKVKATLTVDVSTNTAYMELSRLRSDDTAVYYCVRGDPVRHYYALAYWGQGTLVTVSS
VL: B2 VL with R24G, M58V
notes: also called hu 3007; #43
B4: recombinant humanized anti-CD66c antibody Protein ID 2938 (Vk5 + VH7) (antibody, human IgG1, V domains shown)
VH: B3 VH with K38R, N44G
VL: B2 VL with R24G, N34A, M58V, T69R
notes: also called hu 2938
B5: recombinant humanized anti-CD66c antibody Protein ID 3043 (Vk8 + VH6) (antibody, human IgG1, V domains shown)
VH: B3 VH
VL: B2 VL
notes: also called hu 3043; #71

Columns and labels:
[1] = target: T1, Antigen CD66c (CEACAM6; Sino …); assay: ELISA, coated CEACAM6 100 ng/well, antibody 0.17 ng/ml
Experimental: (§1) Antigen CD66c (CEACAM6; Sino Biological, Inc.) and CEACAM1 antigen (Sino Biological, Inc.) were coated on a 96-well plate at 100 ng per well and then blocked. The primary antibody was diluted serially three fold from 10 ug/ml at initial concentration and was bound at 37° C. for 1 hour, and goat anti-Human Ig-HRP conjugate (Jackson ImmunoResearch) as a secondary antibody was diluted 1:10,000 and incubated at 37° C. for 30 minutes. The washing was carried out at three times between each step, and the TMB reaction was performed, stopped with 1N H₂SO₄ solution at the same amount of TMB solution (100 ul) and then OD value was measured at 450 nm.
(§2) As a result of the experiment, the binding affinities to CD66c antigen of the five kinds of recombinant humanized antibodies selected from among 96 kinds of recombinant humanized antibodies are shown in FIG. 4a, Table 12, FIG. 4b and Table 13. FIG. 4a and Table 12 show the binding capacity of the antibodies to CECACAM6 CD66c) antigen, and FIG. 4b and Table 13 are the results for the CEACAM1 (CD66a) antigen.

[2] = target: T1, Antigen CD66c (CEACAM6; Sino …); assay: ELISA, coated CEACAM6 100 ng/well, antibody 4.57 ng/ml
Experimental: as §1, §2

[3] = target: T2, CEACAM1 antigen (Sino Biological, Inc.); assay: ELISA, coated CEACAM1 100 ng/well, antibody 0.17 ng/ml
Experimental: as §1, §2

[4] = target: T2, CEACAM1 antigen (Sino Biological, Inc.); assay: ELISA, coated CEACAM1 100 ng/well, antibody 0.51 ng/ml
Experimental: as §1, §2

[5] = target: T1, Antigen CD66c (CEACAM6; Sino …); assay: ELISA, coated CEACAM6 100 ng/well, antibody 13.72 ng/ml
Experimental: as §1, §2

[6] = target: T1, Antigen CD66c (CEACAM6; Sino …); assay: ELISA, coated CEACAM6 100 ng/well, antibody 41.15 ng/ml
Experimental: as §1, §2

[7] = target: T2, CEACAM1 antigen (Sino Biological, Inc.); assay: ELISA, coated CEACAM1 100 ng/well, antibody 41.15 ng/ml
Experimental: as §1, §2

[8] = target: T2, CEACAM1 antigen (Sino Biological, Inc.); assay: ELISA, coated CEACAM1 100 ng/well, antibody 370.37 ng/ml
Experimental: as §1, §2

[9] = target: T1, Antigen CD66c (CEACAM6; Sino …); assay: ELISA, coated CEACAM6 100 ng/well, antibody 1111.11 ng/ml
Experimental: as §1, §2

[10] = target: T2, CEACAM1 antigen (Sino Biological, Inc.); assay: ELISA, coated CEACAM1 100 ng/well, antibody 10000.00 ng/ml
Experimental: as §1, §2

[11] = target: T3, CD66c (CEACAM6) on CD66c-positive A549 …; assay: flow cytometry on CD66c-positive A549 cells, mean fluorescence
Experimental: Each expressed 96 recombinant humanized antibody was poured and reacted in a test tube containing the same amount ([…]) of CD66c-positive A549 non-small-cell lung cancer cell line at 4° C. for 30 minutes, washed with PBS, and treated with FITC-conjugated goat anti-Human IgG (DiNona Inc, Korea) was added and incubated at 4° C. for 15 minutes. After washing with PBS, the cells were analyzed with a flow cytometer (Stratedigm, S1000EXi) and the results are shown below.
Among the 96 recombinant humanized antibody candidates, eight were firstly selected based on the degree of expression, the presence of aggregation, and the degree of cell binding (Table 9 and Table 10, FIGS. 3A to 3E).

Binder | OD 450 nm [1] | OD 450 nm [2] | OD 450 nm [3] | OD 450 nm [4] | OD 450 nm [5] | OD 450 nm [6] | OD 450 nm [7] | OD 450 nm [8] | OD 450 nm [9] | OD 450 nm [10] | Mean [11]
B1 | 0.4 OD | 0.8 OD | 0.08 OD | 0.1 OD | 1.15 OD | 2.02 OD | 0.82 OD | 1.13 OD | 3.3 OD | 1.21 OD | 619
B2 | 0.37 OD | 0.74 OD | 0.04 OD | 0.04 OD | 1.06 OD | 1.38 OD | 0.07 OD | 0.12 OD | 3.19 OD | 0.42 OD | 645
B3 | 0.53 OD | 1.02 OD | 0.09 OD | 0.11 OD | 1.64 OD | 2.17 OD | 0.66 OD | 0.92 OD | 3.23 OD | 1.01 OD | 565
B4 | 0.3 OD | 0.65 OD | 0.04 OD | 0.05 OD | 1.15 OD | 1.72 OD | 0.07 OD | 0.14 OD | 3.16 OD | 0.32 OD | 611
B5 | 0.41 OD | 0.91 OD | 0.08 OD | 0.1 OD | 1.37 OD | 1.73 OD | 0.61 OD | 0.8 OD | 2.74 OD | 0.91 OD | 686
